Test results: paper PMC4938799, “LD Motif Recognition by Talin: Structure of the Talin-DLC1 Complex” (Structure(London, England:1993), 2016)

B1: DLC1(461–489) peptide (peptide)
chain: ENEDIFPELDDILYHVKGMQRIVNQWSEK
modifications: Paper numbering is the 1091-residue isoform; +437 gives canonical numbering.
B2: paxillin LD1 peptide (peptide)
chain: MDDLDALLADLESTTS

Target: T1, talin R8 domain
T1 construct: talin rod domain R8 (four-helix bundle), isolated domain used 15N-labelled for NMR; Construct limits, host and species are probably in the Supplemental Experimental Procedures; also called [15N]talin R8 domain
Assay: NMR titration; KD fitted from 1H,15N-HSQC chemical-shift changes; 0.1 mM 15N talin R8, peptide/protein ratios 0.1 to 8; 298 K, 20 mM sodium phosphate pH 6.5, 50 mM NaCl
Settings: both partners purified

Binder | Kd [µM]
B1 | 48
B2 | 168
